{"source": "patent EP1562972B1", "key": {"[1]": {"target": "human neonatal Fc receptor (FcRn), recombinant GPI-linked, on NS0 cells (human) (UniProt P55899)", "sequence (P55899 24-297, chain 1 of 2)": "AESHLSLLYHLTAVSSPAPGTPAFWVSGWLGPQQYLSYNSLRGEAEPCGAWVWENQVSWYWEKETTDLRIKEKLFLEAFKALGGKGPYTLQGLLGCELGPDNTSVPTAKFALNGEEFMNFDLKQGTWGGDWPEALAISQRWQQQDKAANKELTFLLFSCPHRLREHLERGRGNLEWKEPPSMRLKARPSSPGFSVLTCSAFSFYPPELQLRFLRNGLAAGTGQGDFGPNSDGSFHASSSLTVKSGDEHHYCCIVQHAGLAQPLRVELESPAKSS", "sequence (P61769 21-119, chain 2 of 2, further chain)": "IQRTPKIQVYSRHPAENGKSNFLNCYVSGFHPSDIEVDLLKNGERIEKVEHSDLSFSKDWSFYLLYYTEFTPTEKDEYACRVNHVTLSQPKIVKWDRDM", "test": "competition flow cytometry, NS0 cells with human FcRn, vs biotinylated OST577-IgG2M3, FBB pH 6.0"}, "[2]": {"target": "rhesus neonatal Fc receptor (FcRn), recombinant GPI-linked, on NS0 cells (rhesus) (UniProt H9Z6D2)", "test": "competition flow cytometry, NS0 cells with rhesus FcRn, vs biotinylated OST577-IgG2M3, FBB pH 6.0"}, "[3]": {"target": "human neonatal Fc receptor (FcRn), recombinant GPI-linked, on NS0 cells (human) (UniProt P55899)", "test": "competition flow cytometry, NS0 cells with human FcRn, vs biotinylated HuEP5C7-IgG2M3, FSB pH 6.0"}, "[4]": {"target": "human neonatal Fc receptor (FcRn), recombinant GPI-linked, on NS0 cells (human) (UniProt P55899)", "test": "competition flow cytometry, NS0 cells with human FcRn, vs biotinylated HuEP5C7-IgG2M3, FBB pH 6.0"}, "[5]": {"target": "human neonatal Fc receptor (FcRn), recombinant GPI-linked, on NS0 cells (human) (UniProt P55899)", "test": "competition flow cytometry, NS0 cells with human FcRn, vs biotinylated OST577-IgG1, FBB pH 6.0"}, "[6]": {"target": "rhesus neonatal Fc receptor (FcRn), recombinant GPI-linked, on NS0 cells (rhesus) (UniProt H9Z6D2)", "test": "competition flow cytometry, NS0 cells with rhesus FcRn, vs biotinylated OST577-IgG1, FBB pH 6.0"}}, "data": [{"substance": "OST577-IgG2M3 T250Q/M428L double mutant (antibody)", "values": [{"measurement": "IC50", "setting": "[1]", "result": 0.43, "unit": "µg/mL"}, {"measurement": "IC50", "setting": "[2]", "result": 0.554, "unit": "µg/mL"}, {"measurement": "Relative Binding (ratio (IC50 wild-type / IC50 mutant))", "setting": "[2]", "result": 27}]}, {"substance": "OST577-IgG2M3 M428L mutant (antibody)", "values": [{"measurement": "IC50", "setting": "[1]", "result": 1.79, "unit": "µg/mL"}, {"measurement": "Relative Binding (ratio (IC50 wild-type / IC50 mutant))", "setting": "[1]", "result": 6.7}, {"measurement": "IC50", "setting": "[2]", "result": 1.92, "unit": "µg/mL"}, {"measurement": "Relative Binding (ratio (IC50 wild-type / IC50 mutant))", "setting": "[2]", "result": 7.7}]}, {"substance": "OST577-IgG2M3 L314Q mutant (antibody)", "values": [{"measurement": "IC50", "setting": "[3]", "result": 32, "unit": "µg/mL"}, {"measurement": "Relative Binding (ratio (IC50 wild-type / IC50 mutant))", "setting": "[3]", "result": 0.33}]}, {"substance": "OST577-IgG2M3 M428F mutant (antibody)", "values": [{"measurement": "IC50", "setting": "[3]", "result": 3.4, "unit": "µg/mL"}, {"measurement": "IC50", "setting": "[4]", "result": 2.97, "unit": "µg/mL"}]}, {"substance": "OST577-IgG1 M428F mutant (antibody)", "values": [{"measurement": "IC50", "setting": "[5]", "result": 3.44, "unit": "µg/mL"}, {"measurement": "Relative Binding (ratio (IC50 wild-type / IC50 mutant))", "setting": "[5]", "result": 4}]}, {"substance": "OST577-IgG2M3 L314A mutant (antibody)", "values": [{"measurement": "IC50", "setting": "[3]", "result": 68.7, "unit": "µg/mL"}, {"measurement": "Relative Binding (ratio (IC50 wild-type / IC50 mutant))", "setting": "[3]", "result": 0.16}]}, {"substance": "OST577-IgG2M3 L314W mutant (antibody)", "values": [{"measurement": "IC50", "setting": "[3]", "result": 20.2, "unit": "µg/mL"}, {"measurement": "Relative Binding (ratio (IC50 wild-type / IC50 mutant))", "setting": "[3]", "result": 0.53}]}, {"substance": "OST577-IgG2M3 L314R mutant (antibody)", "values": [{"measurement": "IC50", "setting": "[3]", "result": 102, "unit": "µg/mL"}]}, {"substance": "OST577-IgG1 T250Q/M428L double mutant (antibody)", "values": [{"measurement": "IC50", "setting": "[5]", "result": 0.351, "unit": "µg/mL"}, {"measurement": "Relative Binding (ratio (IC50 wild-type / IC50 mutant))", "setting": "[5]", "result": 29}, {"measurement": "IC50", "setting": "[6]", "result": 0.236, "unit": "µg/mL"}, {"measurement": "Relative Binding (ratio (IC50 wild-type / IC50 mutant))", "setting": "[6]", "result": 37}]}, {"substance": "OST577-IgG1 M428L mutant (antibody)", "values": [{"measurement": "IC50", "setting": "[5]", "result": 0.896, "unit": "µg/mL"}, {"measurement": "IC50", "setting": "[6]", "result": 0.629, "unit": "µg/mL"}, {"measurement": "Relative Binding (ratio (IC50 wild-type / IC50 mutant))", "setting": "[6]", "result": 14}]}]}
